Patent publication US7001748B2, “Methods of making polyketides using hybrid polyketide synthases” (The Board of Trustees of the Leland Stanford Junior …, priority 1999, dated 2006)

Tests used:
[1] = biological target: T1, M2(4) and (5)M3+TE (Saccharopolyspora erythraea, UniProt Q03131+Q03132); test: Inhibition of tetraketide production by synthetic peptide, M4-M5 linker pair; assay type: biochemical; settings: peptide concentrations up to 100 μM
T1 construct: Plasmid pST179 encodes a derivative of M2 containing the C-terminal linker of DEBS module 4 (M4); made in house; host or cells: E. coli BL21(DE3) co-expressing B. subtilis sfp
Method: (§1) Inhibition of Tetraketide Production. The ability of the synthetic peptide to inhibit the transfer reaction, and thus the production of tetraketide, was tested under the same reaction conditions described for the two module coincubations. The concentrations of M2 and M3+TE were both 1.0 μM, and the concentrations of M2(4) and (5)M3+TE were 0.5 and 1.0 μM, respectively. The only difference was the addition of the peptide at concentrations ranging from 1 to 100 μM to the assay containing M2 and M3+TE [or alternatively M2(4) and (5)M3+TE]. For greater accuracy, each inhibition assay was performed side by side with a control lacking inhibitor. The effect of the inhibitor was thus determined by dividing the inhibited rate by the control rate.

[2] = biological target: T2, individually assayed modules, including M3+TE (Saccharopolyspora erythraea, UniProt Q03132+Q03133); test: Effect of synthetic peptide on individually assayed modules; assay type: biochemical
T2 construct: encodes module 3 of DEBS (M3) with its own N-terminal linker and with the thioesterase fused to the C-terminus; natural N-terminal interpolypeptide linker of module 3 (start of DEBS2, ahead of the Module 3 feature); His6 (C); made in house; host or cells: E. coli BL21(DE3) co-expressing B. subtilis sfp
Method: In Vitro Polyketide Production. Assays of individual modules contained 1.0 μM protein, 1-10 mM N-acetylcysteamine thioester of the “natural” (2S,3R)-2-methyl-3-hydroxypentanoic acid diketide (NDK) (1), 4 mM NADPH, 440 mM sodium phosphate, 1 mM EDTA, 2.5 mM dithiothreitol (DTT), and 20% w/v glycerol, pH 7.2, in 80 μL. Reactions with M2 or M2(4) included 0.3 mM ^14C-methylmalonyl-CoA (specific activity adjusted to 10.4 mCi/mmol), and those with M3+TE or (5)M3+TE included 0.5 mM ^14C-methylmalonyl-CoA (specific activity reduced to 1.1 mCi/mmol). [M2(4) refers to a derivative of M2 in which the C-terminal linker has been replaced with its counterpart from module 4, whereas (5)M3 refers to a derivative of M3 in which the N-terminal linker has been replaced with its counterpart from module 5 (see FIG. 4).] Both concentrations of methylmalonyl-CoA were saturating, but different concentrations were needed due to the disparate rates of turnover between the modules with and without the thioesterase. The reaction mixtures were preincubated to 30° C. and started with the addition of the methylmalonyl-CoA. […] Product formation was quantified by comparison with standards of the labeled methylmalonyl-CoA. […]

[3] = biological target: T3, M2 and M3+TE (Saccharopolyspora erythraea); test: Inhibition of tetraketide production by synthetic peptide, M2-M3 linker pair; assay type: biochemical; settings: peptide 1 to 100 μM, 1.0 μM M2 and M3+TE
T3 construct: Plasmid pBP19 contains module 2 of DEBS (M2) and is a derivative of pRSG64; made in house; host or cells: E. coli BL21(DE3) co-expressing B. subtilis sfp
Method: as §1

[4] = CD spectroscopy of the M3 N-terminal peptide; assay type: physicochemical
Method: CD Spectroscopy. The CD spectrum of the M3 N-terminal peptide was recorded in a 1-mm path-length cell at a sample concentration of 100 μM in phosphate-buffered saline (PBS; 0.15 M KCl, 25 mM phosphate, pH 6.9). Measurements were made using an Aviv 62DS spectropolarimeter. Concentration was determined by tyrosine absorbance at 275 nm in 8 M guanidine hydrochloride.

[5] = biological target: T4, (5)M3+TE (Saccharopolyspora erythraea, UniProt Q03132+Q03133); settings: previously shown; cited from earlier work
T4 construct: (5)M3+TE: module 3 with N-terminal linker from module 5; N-terminal interpolypeptide linker of DEBS module 5 (start of DEBS3, Q03133); His6 (C); made in house; host or cells: E. coli BL21(DE3) co-expressing B. subtilis sfp

[6] = biological target: T5, module 6+TE (Saccharopolyspora erythraea, UniProt Q03133, DEL53-1503); settings: diffusive loading, shown earlier; cited from earlier work
T5 construct: a single module of the DEBS PKS fused to the thioesterase (TE) termination region of module 6; made in house; host or cells: E. coli BL21(DE3) co-expressing B. subtilis sfp

[7] = system: (5)M2+TE, (5)M5+TE, and (5)M6+TE; settings: Wu et al. 2000; cited from earlier work
[8] = biological target: T6, module 2+TE (Saccharopolyspora erythraea, UniProt Q03131+Q03133); settings: diffusive loading, shown earlier; cited from earlier work
T6 construct: a single module of the DEBS PKS fused to the thioesterase (TE) termination region of module 6; made in house; host or cells: E. coli BL21(DE3) co-expressing B. subtilis sfp

[9] = biological target: T7, (3)M3+TE (Saccharopolyspora erythraea, UniProt Q03132+Q03133); settings: previously shown; cited from earlier work
T7 construct: encodes module 3 of DEBS (M3) with its own N-terminal linker and with the thioesterase fused to the C-terminus; natural N-terminal interpolypeptide linker of module 3 (start of DEBS2, ahead of the Module 3 feature); His6 (C); made in house; host or cells: E. coli BL21(DE3) co-expressing B. subtilis sfp

[10] = biological target: T8, module 5+TE (Saccharopolyspora erythraea, UniProt Q03133); settings: diffusive loading, shown earlier; cited from earlier work
T8 construct: a single module of the DEBS PKS fused to the thioesterase (TE) termination region of module 6; thioesterase (TE) domain of DEBS (end of the same DEBS3 polypeptide); made in house; host or cells: E. coli BL21(DE3) co-expressing B. subtilis sfp

[11] = system: (5)M2+TE, (5)M5+TE, and (5)M6+TE; test: Diketide incorporation, statements made for all three modules together; assay type: biochemical; settings: control studies, data not shown
Method: Qualitative Substrate Incorporation Assays. The reaction buffer for the diketide incorporation assays contained 400 mM NaH2PO4 (pH 7.2), 2.5 mM DTT, 1 mM ETDA, 20% glyercol (reaction buffer C). 1 μM module, 20 μM acyl-ACP, 500 μMDL-[2-^14C]-methylmalonyl CoA (ARC), and 4 mM NADPH (Sigma) were incubated in 20 μL of the reaction buffer at 30° C. for 1.5 h. The reactions were either spotted directly onto a TLC plate (Whatman 250 μM silica gel, UV254), or first extracted with EtOAc followed by spotting of the organic extracts on a TLC plate. The TLC plates were resolved using 60% EtOAc in hexanes, and the radioactive products were visualized on a Packard InstantImager.
Determination of kcat Values. […] To quench the reactions, 20 μL reaction aliquots were mixed with 80 μL of 12.5% SDS. kcat values for the acyl-ACP substrates were determined by measuring steady-state saturating rates at multiple substrate concentrations (varying from 40 to 90 μM 4). […]
Qualitative Assays of Diketide Incorporation by Acyl-ACPs. […] 2000, 122, 4847-4852 (It should be noted that elongation of 4c and 4d by modules 5+TE and 6+TE yielded minor quantities of unreduced triketide lactones, indicating less efficient β-ketoreductase activity on these two anti-diketide substrates than on the two syn-diketide substrates.). […]

[12] = listed as N-terminal linker of module 3
[13] = listed as synthetic peptide mimic of the N-terminal linker of M3

Compound: H2N-MTDSEKVAEYLRRATLDLRAARQRIRELESD-amide (H-MTDSEKVAEYLRRATLDLRAARQRIRELESD-NH2) [M3 N-term]
- inhibition of tetraketide lactone 2 formation [1, 12]: No inhibitory effect
- inhibition of tetraketide lactone 2 formation [1, 13]: no such effect
- inhibitory effect upon individually assayed modules [2]: no inhibitory effect
- inhibition of tetraketide lactone 2 formation [3, 12]: could inhibit the formation of 2
- inhibition of tetraketide lactone 2 formation ([3]; listed as peptide corresponding to the N-terminal linker of module 3): shown to inhibit the formation of tetraketide lactone 2
- inhibition of tetraketide lactone 2 formation [3, 13]: lowered the overall rate of tetraketide production in a dose-dependent fashion
- helical content ([4]; 100 μM in PBS pH 6.9, listed as N-terminal linker peptide of M3): approximately 50%
- helical content ([4]; 100 μM in PBS pH 6.9, listed as peptide mimic): ca. 50%

Compound: CCC(O)C(C)C(=O)SCCNC(C)=O (stereo not drawn) [2a]
- incorporation of NAC thioester (qualitative) [5]: readily incorporated and elongated
- kcat, NAC thioester substrate [6]: 0.283 s⁻¹
- incorporation of NAC thioester (qualitative) [7]: substrates for the three modules
- kcat, NAC thioester substrate [8]: 0.0767 s⁻¹
- incorporation of NAC thioester (qualitative) [9]: readily incorporated and elongated
- kcat (elongation rate constant), NAC thioester substrate [10]: 0.00417 s⁻¹

Compound: CCC(O)C(C)C(=O)SCCNC(=O)CCNC(=O)C(O)C(C)(C)COP(=O)(O)OP(=O)(O)OCC1OC(n2cnc3c(N)ncnc32)C(O)C1OP(=O)(O)O (stereo not drawn) [5a]
- CoA thioester compared with NAC thioester 2a as substrate [11]: approximately equivalent substrates
